# Literature values in patent US6063755A, “Intestinal trefoil proteins” (The General Hospital Corporation, priority 1995, dated 2000).
# Tests used:
# [1] = laboratory animal; parenteral as well as oral administration
# [2] = laboratory animal; parenteral as well as oral administration; remark: listed apart in the source
molecule,measurement,setting,value
"PSP: porcine pancreatic peptide, pancreatic spasmolytic peptide; thought to include two trefoils (protein) EKPAACRCSRQDPKNRVNCGFPGITSDQCFTSGCCFDSQVPGVPWCFKPLPAQESEECVMEV",gastric acid secretion,[1],inhibit
same,gastrointestinal motility,[2],inhibit
